Assays:
[1] = target: T1, Abz-VDVADNA-Dap (Dnp)
T1 chain: VDVADNA

[2] = target: T2, Abz-VDVADDA-Dap (Dnp)
T2 chain: VDVADDA

[3] = target: T7AC-6H-VDVAD-hFGF2
[4] = target: T3, Abz-VDVADMA-Dap (Dnp)
T3 chain: VDVADMA

[5] = target: T4, Abz-VDVADQA-Dap (Dnp)
T4 chain: VDVADQA

[6] = target: T5, Abz-VDVADTA-Dap (Dnp)
T5 chain: VDVADTA

[7] = target: T7AC_6H_GSGSGSG_VDVAD-hFGF2
[8] = target: T6, Abz-VDVADAA-Dap (Dnp)
T6 chain: VDVADAA

[9] = target: T7, Abz-VDVADPA-Dap (Dnp)
T7 chain: VDVADPA

[10] = target: T8, Abz-VDVADGA-Dap (Dnp)
T8 chain: VDVADGA

[11] = target: T7AC-6H-GSG-VDVAD-hFGF-2
[12] = target: T9, Abz-VDVADVA-Dap (Dnp)
T9 chain: VDVADVA

[13] = target: T10, Abz-VDVADYA-Dap (Dnp)
T10 chain: VDVADYA

[14] = target: T11, Abz-VDVADWA-Dap (Dnp)
T11 chain: VDVADWA

[15] = target: T12, Abz-VDVADRA-Dap (Dnp)
T12 chain: VDVADRA

[16] = target: T13, Abz-VDVADKA-Dap (Dnp)
T13 chain: VDVADKA

[17] = target: T7AC_6H_GSG_VDSAD-hFGF2
[18] = target: T14, Abz-VDVADIA-Dap (Dnp)
T14 chain: VDVADIA

[19] = target: T15, Abz-VDVADFA-Dap (Dnp)
T15 chain: VDVADFA

[20] = target: T16, Abz-VDVADLA-Dap (Dnp)
T16 chain: VDVADLA

[21] = target: T17, Abz-VDVADSA-Dap (Dnp)
T17 chain: VDVADSA

[22] = target: T18, Abz-VDVADEA-Dap (Dnp)
T18 chain: VDVADEA

[23] = target: T19, Abz-VDVADHA-Dap (Dnp)
T19 chain: VDVADHA

B1: T7AC_6H_mS9ProD (protein)
chain: MLEDPERNKERKEAELQAQTAEQHHHHHHGKNHAGSPGCEESAAGKEKLPKMRLPTRSDMICGYACLKGTAAMRNTKRGSWYIEALAQVFSERACDMHVADMLVKVNALIKDREGYAPGTEFHRCKVMSEYCSTLCRHLYLFPGHPPTGSGPVCLQVKPCTPEFYQTHFQLAYRLQSRPRGLALVLSNVHFTDEKELEFRSGGDVDHSTLVTLFKLLGYDVHVLCDQTAQEMQEKLQNFAQLPAHRGTDSCIVALLSHGVEGAIYGVDGKLLQLQEVFQLFDNANCPSLQNKPKMFFIQACRGEETDRGVDQQD
In the case of B1, the KM [1] is reported as 130 µM, the KM [2] is reported as 190 µM and the KM [3] is reported as 529 µM. The KM [4] was 480 µM, the KM [5] was 120 µM and the KM [6] was 120 µM. The KM [7] was 252 µM, the KM [8] was 100 µM and the KM [9] was 100 µM. The KM [10] was 65 µM, the KM [11] was 329 µM and the KM [12] was 100 µM. For the same protein, the KM [13] was 900 µM, the KM [14] was 53 µM and the KM [15] was 47 µM. It also gave a KM [16] of 79 µM, a KM [17] of 865 µM and a KM [18] of 110 µM. It also gave a KM [19] of 120 µM, a KM [20] of 400 µM and a KM [21] of 180 µM. For the same protein, the KM [22] was 160 µM and the KM [23] was 170 µM.

Reference: patent US20220380739
